Laboratory results published in PMC11645235 (Cell, 2024).
Values joined by “and” are separate entries in the source; they are usually repeats but may differ in a detail not shown here. Equal values may be shown once. Each block holds one compound with its values, some of them ahead of it.

Legend:
[1] = target: Cad1 E408A mutant (unknown Bacteroidales bacterium); assay: SEC-MALS; Superdex 200 10/300 increase column in buffer A (25 mM Hepes pH 8, 200 mM NaCl, 2 mM beta-mercaptoethanol, 5% glycerol); full-length Cad1 at 20 uM, apo and also after incubation with cA4 or cA6, ATP and MgCl2 (1:5:50:50) at 37 C
[2] = target: CRISPR-associated adenosine deaminase 1 (Cad1), hexa-histidyl tagged, full length (unknown Bacteroidales bacterium); assay: as above
[3] = target: Cad1 W349A mutant (unknown Bacteroidales bacterium); assay: as above
[4] = target: hexa-histidyl-tagged CARF domain of Cad1 (residues 1-185) (unknown Bacteroidales bacterium); assay: as above
[5] = target: Cad1 K342A mutant (unknown Bacteroidales bacterium); assay: as above
[6] = target: CRISPR-associated adenosine deaminase 1 (Cad1); assay: ITC; co-crystal structure at […] Å; assay type: binding, Bacteroidales bacterium

Compound: hexa-histidyl-tagged CARF domain of Cad1 (residues 1-185) (domain or fragment)
stoichiometry N [4]: 2

Compound: Cad1 K342A mutant (enzyme)
stoichiometry N [5]: 6

Compound: Nc1ncnc2c1ncn2[C@@H]1O[C@@H]2COP(=O)(O)O[C@H]3[C@@H](O)[C@H](n4cnc5c(N)ncnc54)O[C@@H]3COP(=O)(O)O[C@H]3[C@@H](O)[C@H](n4cnc5c(N)ncnc54)O[C@@H]3COP(=O)(O)O[C@H]3[C@@H](O)[C@H](n4cnc5c(N)ncnc54)O[C@@H]3COP(=O)(O)O[C@H]3[C@@H](O)[C@H](n4cnc5c(N)ncnc54)O[C@@H]3COP(=O)(O)O[C@H]3[C@@H](O)[C@H](n4cnc5c(N)ncnc54)O[C@@H]3COP(=O)(O)O[C@H]2[C@H]1O [cA6]
Kd [6]: 0.03 µM

Next, values leading:

stoichiometry N [1]: 6
Compound: Cad1 E408A mutant (enzyme)

stoichiometry N [2]: 6 and 2
Compound: CRISPR-associated adenosine deaminase 1 (Cad1), hexa-histidyl tagged, full length (enzyme)

stoichiometry N [3]: 2
Compound: Cad1 W349A mutant (enzyme)
